Experiment [1] has as its target T1, human LTBP3-proTGFβ1 complex (human, UniProt Q9NS15 44-1303; P01137 30-390, limits assumed).
T1 construct: also called hLTBP3-proTGFβ1
The experiment can be described thus: monovalent Fab affinity (Biacore); repeats the 12th table.

Experiment [2] has as its target T2, human LRRC33-proTGFβ1 complex (human, UniProt Q86YC3 19-650; P01137 30-390, limits assumed).
T2 construct: also called hLRRC33-proTGFβ1
The experiment is described as above.

The target of experiment [3] is T3, human LTBP1-proTGFβ1 complex (human, UniProt Q14766 347-1721; P01137 30-390).
T3 construct: also called hLTBP1-proTGFβ1
T3 sequence (Q14766 347-1721 limits assumed, chain 1 of 2): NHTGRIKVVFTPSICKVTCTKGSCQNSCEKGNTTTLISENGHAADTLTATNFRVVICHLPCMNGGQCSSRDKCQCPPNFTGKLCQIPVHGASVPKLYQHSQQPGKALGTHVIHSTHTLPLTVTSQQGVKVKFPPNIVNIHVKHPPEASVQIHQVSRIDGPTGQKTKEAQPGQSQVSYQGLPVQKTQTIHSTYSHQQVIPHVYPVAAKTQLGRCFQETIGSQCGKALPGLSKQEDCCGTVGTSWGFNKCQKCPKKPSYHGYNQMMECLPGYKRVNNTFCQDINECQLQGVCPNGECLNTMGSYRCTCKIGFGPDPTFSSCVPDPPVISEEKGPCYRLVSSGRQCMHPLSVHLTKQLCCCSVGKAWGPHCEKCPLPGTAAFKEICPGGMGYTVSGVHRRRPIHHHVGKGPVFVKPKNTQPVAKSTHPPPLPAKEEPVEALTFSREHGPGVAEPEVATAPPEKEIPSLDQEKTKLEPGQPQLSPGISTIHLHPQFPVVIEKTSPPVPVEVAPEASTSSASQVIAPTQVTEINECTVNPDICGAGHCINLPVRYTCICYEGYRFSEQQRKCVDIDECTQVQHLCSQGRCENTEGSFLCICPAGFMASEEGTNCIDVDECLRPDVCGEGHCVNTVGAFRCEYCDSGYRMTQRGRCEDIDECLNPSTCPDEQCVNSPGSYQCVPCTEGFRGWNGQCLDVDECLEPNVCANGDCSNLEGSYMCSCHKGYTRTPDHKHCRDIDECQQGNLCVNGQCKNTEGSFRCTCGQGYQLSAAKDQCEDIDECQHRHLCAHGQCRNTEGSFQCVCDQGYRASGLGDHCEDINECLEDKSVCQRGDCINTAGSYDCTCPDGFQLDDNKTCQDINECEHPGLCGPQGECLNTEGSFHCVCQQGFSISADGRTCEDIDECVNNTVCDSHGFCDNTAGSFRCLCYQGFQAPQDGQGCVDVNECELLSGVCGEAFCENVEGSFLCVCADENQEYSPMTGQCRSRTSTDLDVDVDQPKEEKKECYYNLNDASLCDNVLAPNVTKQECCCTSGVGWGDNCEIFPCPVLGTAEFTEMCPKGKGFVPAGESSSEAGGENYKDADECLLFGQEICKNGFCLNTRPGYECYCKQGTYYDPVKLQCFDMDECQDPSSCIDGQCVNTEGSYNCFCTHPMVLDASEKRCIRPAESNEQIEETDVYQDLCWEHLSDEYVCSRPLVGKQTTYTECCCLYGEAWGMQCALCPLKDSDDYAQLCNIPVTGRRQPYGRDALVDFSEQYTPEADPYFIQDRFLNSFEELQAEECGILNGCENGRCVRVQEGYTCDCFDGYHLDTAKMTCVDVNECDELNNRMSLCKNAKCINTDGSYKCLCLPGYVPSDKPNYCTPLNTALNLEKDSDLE
T3 sequence (P01137 30-390 limits assumed, chain 2 of 2): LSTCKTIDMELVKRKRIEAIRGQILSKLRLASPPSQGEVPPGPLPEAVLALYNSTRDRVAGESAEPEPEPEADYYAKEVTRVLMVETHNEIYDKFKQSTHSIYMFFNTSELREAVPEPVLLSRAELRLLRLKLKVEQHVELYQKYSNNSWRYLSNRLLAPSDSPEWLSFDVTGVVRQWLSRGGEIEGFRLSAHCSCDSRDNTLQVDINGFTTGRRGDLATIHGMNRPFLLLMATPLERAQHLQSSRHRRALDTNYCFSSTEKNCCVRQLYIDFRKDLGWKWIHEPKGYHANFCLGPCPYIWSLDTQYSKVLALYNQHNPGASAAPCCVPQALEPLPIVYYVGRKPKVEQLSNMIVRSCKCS
The experiment is described as above.

Experiment [4] addresses T4, human GARP-proTGFβ1 complex (human, UniProt Q14392 20-627; P01137 30-390, limits assumed).
T4 construct: also called hGARP-proTGFβ1
The experiment is described as above.

In experiment [5] the target is T1, human LTBP3-proTGFβ1 complex. The experiment can be described thus: SPR (Biacore), monovalent Fab.
In experiment [6] the target is T2, human LRRC33-proTGFβ1 complex. The experiment can be described thus: SPR (Biacore), monovalent Fab.
Experiment [7] concerns the target T3, human LTBP1-proTGFβ1 complex. Briefly: SPR (Biacore), monovalent Fab.
Experiment [8] concerns the target T4, human GARP-proTGFβ1 complex. Briefly: SPR (Biacore), monovalent Fab.
Experiment [9] deals with T1, human LTBP3-proTGFβ1 complex. Briefly: SPR (Biacore).
Experiment [10] deals with T3, human LTBP1-proTGFβ1 complex. Briefly: SPR (Biacore).
Experiment [11] addresses T1, human LTBP3-proTGFβ1 complex. The experiment can be described thus: binding profile; method not stated.
Experiment [12] has as its target T3, human LTBP1-proTGFβ1 complex. Briefly: binding profile; method not stated.

T2 sequence (Q86YC3 19-650 limits assumed, chain 1 of 2): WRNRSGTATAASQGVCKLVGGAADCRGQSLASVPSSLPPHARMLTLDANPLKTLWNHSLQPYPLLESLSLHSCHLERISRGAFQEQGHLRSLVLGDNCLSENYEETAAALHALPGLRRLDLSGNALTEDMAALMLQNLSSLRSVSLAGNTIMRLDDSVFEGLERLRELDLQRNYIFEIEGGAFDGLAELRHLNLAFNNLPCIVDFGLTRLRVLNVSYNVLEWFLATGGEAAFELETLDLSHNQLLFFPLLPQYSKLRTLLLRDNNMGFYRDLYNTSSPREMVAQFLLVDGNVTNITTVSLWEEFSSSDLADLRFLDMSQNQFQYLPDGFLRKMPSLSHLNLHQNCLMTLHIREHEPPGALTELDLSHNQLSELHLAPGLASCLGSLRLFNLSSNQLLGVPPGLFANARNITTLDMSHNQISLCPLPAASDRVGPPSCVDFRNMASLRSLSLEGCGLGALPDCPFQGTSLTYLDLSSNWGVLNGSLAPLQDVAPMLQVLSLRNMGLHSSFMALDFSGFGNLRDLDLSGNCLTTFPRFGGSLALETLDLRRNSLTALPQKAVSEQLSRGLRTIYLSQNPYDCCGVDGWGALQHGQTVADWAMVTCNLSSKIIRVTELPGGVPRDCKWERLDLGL
T2 sequence (P01137 30-390 limits assumed, chain 2 of 2): as the sequence (P01137 30-390 limits assumed, chain 2 of 2) above
T1 sequence (Q9NS15 44-1303 limits assumed, chain 1 of 2): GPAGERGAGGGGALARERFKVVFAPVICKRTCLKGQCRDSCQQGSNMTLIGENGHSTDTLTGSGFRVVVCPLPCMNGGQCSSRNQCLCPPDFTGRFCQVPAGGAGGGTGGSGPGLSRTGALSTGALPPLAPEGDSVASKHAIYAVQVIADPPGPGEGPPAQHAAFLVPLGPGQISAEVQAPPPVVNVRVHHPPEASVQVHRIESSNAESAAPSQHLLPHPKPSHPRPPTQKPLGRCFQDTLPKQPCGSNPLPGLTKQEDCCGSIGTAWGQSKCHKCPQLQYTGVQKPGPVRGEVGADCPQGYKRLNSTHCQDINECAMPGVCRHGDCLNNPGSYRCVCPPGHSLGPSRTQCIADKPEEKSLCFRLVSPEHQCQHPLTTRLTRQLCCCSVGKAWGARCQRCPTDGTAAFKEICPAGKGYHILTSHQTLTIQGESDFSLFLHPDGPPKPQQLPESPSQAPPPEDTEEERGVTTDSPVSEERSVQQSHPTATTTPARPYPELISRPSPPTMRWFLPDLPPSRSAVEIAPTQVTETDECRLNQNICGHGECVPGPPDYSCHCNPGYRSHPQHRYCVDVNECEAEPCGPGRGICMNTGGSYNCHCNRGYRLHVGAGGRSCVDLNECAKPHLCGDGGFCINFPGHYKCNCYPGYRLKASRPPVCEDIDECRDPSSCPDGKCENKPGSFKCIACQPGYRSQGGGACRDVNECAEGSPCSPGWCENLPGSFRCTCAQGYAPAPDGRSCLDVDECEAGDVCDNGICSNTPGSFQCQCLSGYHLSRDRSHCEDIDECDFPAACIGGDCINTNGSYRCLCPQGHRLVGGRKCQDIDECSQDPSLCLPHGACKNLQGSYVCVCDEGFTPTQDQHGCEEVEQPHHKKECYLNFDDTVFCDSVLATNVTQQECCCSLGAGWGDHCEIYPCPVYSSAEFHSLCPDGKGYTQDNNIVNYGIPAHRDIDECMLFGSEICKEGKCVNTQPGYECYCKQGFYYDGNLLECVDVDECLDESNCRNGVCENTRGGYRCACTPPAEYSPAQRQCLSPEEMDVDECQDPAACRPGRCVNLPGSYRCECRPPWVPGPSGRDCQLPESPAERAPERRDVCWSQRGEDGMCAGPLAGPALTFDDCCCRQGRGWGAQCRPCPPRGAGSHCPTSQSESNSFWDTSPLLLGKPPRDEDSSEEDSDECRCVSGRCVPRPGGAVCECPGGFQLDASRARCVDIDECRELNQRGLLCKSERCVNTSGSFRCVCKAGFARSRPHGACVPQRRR
T1 sequence (P01137 30-390 limits assumed, chain 2 of 2): as the sequence (P01137 30-390 limits assumed, chain 2 of 2) above
T4 sequence (Q14392 20-627 limits assumed, chain 1 of 2): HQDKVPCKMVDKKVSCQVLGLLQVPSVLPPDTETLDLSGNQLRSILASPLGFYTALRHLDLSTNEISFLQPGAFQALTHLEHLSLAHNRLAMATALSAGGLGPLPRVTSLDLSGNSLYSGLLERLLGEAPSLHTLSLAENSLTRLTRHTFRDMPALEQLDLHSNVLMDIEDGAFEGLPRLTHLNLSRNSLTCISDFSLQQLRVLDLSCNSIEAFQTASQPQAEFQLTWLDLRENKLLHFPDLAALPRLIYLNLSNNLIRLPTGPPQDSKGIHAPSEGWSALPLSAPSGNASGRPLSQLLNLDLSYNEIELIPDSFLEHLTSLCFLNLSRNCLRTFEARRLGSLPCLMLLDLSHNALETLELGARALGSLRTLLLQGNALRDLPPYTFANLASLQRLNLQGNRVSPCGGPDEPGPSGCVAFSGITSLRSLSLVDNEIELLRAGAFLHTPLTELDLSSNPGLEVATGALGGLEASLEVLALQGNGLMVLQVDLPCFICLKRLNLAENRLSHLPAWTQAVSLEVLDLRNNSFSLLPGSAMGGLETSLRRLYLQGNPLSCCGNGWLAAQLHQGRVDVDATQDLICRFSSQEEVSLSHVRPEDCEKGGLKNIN
T4 sequence (P01137 30-390 limits assumed, chain 2 of 2): as the sequence (P01137 30-390 limits assumed, chain 2 of 2) above

B1: Ab42 human Fab (Fab, V domains shown)
VH: QVQLVESGGGVVQPGRSLRLSCAASGFTFRSYVMHWVRQAPGKGLEWVAVISHEGSLKYYADSVKGRFTISRDNSKNTLYLQMNSLRAEDTAVYYCARPRIAARRGGFGYWGQGTLVTVSS
VL: NFMLTQPHSVSESPGKTVTISCTRSSGNIDNNYVQWYQQRPGSSPTTVIYEDNQRPSGVPDRFSGSIDSSSNSASLTISGLKTEDEADYYCQSYDYDTQGVVFGGGTKLTVL
notes: Fab of Ab42; also called Ab42 Fab; Ab42 (monovalent, Fab)
Turning to B1, the Kd in [1] was found to be 0.57 nM; in [2], 134 nM; in [3], 0.38 nM; in experiment [4] it was 145 nM; in experiment [5], 0.57 nM; in experiment [6], 134 nM. In addition, the Kd in experiment [7] amounted to 0.38 nM; in experiment [8] it was 145 nM. Besides, the koff turned out to be 0.000109 s⁻¹ in experiment [5], 0.00271 s⁻¹ in experiment [6], 0.000111 s⁻¹ in [7] and 0.006 s⁻¹ in experiment [8]. Also, the kon in experiment [5] was found to be 191000 M⁻¹ s⁻¹; in experiment [6] it was 20200 M⁻¹ s⁻¹; in [7], 293000 M⁻¹ s⁻¹; in experiment [8], 41500 M⁻¹ s⁻¹. In addition, the “fold binding selectivity compared to GARP or LRRC33 complexes” value in experiment [9] and in experiment [10] was approximately 100 fold throughout.

B2: Ab42 (antibody, V domains shown)
VH: QVQLVESGGGVVQPGRSLRLSCAASGFTFRSYVMHWVRQAPGKGLEWVAVISHEGSLKYYADSVKGRFTISRDNSKNTLYLQMNSLRAEDTAVYYCARPRIAARRGGFGYWGQGTLVTVSS
VL: NFMLTQPHSVSESPGKTVTISCTRSSGNIDNNYVQWYQQRPGSSPTTVIYEDNQRPSGVPDRFSGSIDSSSNSASLTISGLKTEDEADYYCQSYDYDTQGVVFGGGTKLTVL
notes: also called SR-AB42; SR-Ab42
On to B2, for which the “fold specificity over GARP and LRRC33 complexes” value in experiment [11] and in experiment [12] was more than 100 fold each time.

Values taken from patent US20240301073A1 (SCHOLAR ROCK, published 2024).
